# Reference: patent publication US11471462B2, “Compositions and methods for detecting and treating diabetes” (THE BROAD INSTITUTE, INC., priority 2016, dated 2022)
# B1: PSMD12 (protein)
# chain: ADGGSERADGRIVKMEVDYSATVDQRLPECAKLAKEGRLQEVIETLLSLEKQTRTASDMVSTSRILVAVVKMCYEAKEWDLLNENIMLLSKRRSQLKQAVAKMVQQCCTYVEEITDLPIKLRLIDTLRMVTEGKIYVEIERARLTKTLATIKEQNGDVKEAASILQELQVETYGSMEKKERVEFILEQMRLCLAVKDYIRTQIISKKINTKFFQEENTEKLKLKYYNLMIQLDQHEGSYLSICKHYRAIYDTPCIQAESEKWQQALKSVVLYVILAPFDNEQSDLVHRISGDKKLEEIPKYKDLLKLFTTMELMRWSTLVEDYGMELRKGSLESPATDVFGSTEEGEKRWKDLKNRVVEHNIRIMAKYYTRITMKRMAQLLDLSVDESEAFLSNLVVNKTIFAKVDRLAGIINFQRPKDPNNLLNDWSQKLNSLMSLVNKTTHLIAKEEMIHNLQ
# B2: AGPAT6 (protein)
# chain: VSFGIRKLYMKSLLKIFAWATLRMERGAKEKNHQLYKPYTNGIIAKDPTSLEEEIKEIRRSGSSKALDNTPEFELSDIFYFCRKGMETIMDDEVTKRFSAEELESWNLLSRTNYNFQYISLRLTVLWGLGVLIRYCFLLPLRIALAFTGISLLVVGTTVVGYLPNGRFKEFMSKHVHLMCYRICVRALTAIITYHDRENRPRNGGICVANHTSPIDVIILASDGYYAMVGQVHGGLMGVIQRAMVKACPHVWFERSEVKDRHLVAKRLTEHVQDKSKLPILIFPEGTCINNTSVMMFKKGSFEIGATVYPVAIKYDPQFGDAFWNSSKYGMVTYLLRMMTSWAIVCSVWYLPPMTREADEDAVQFANRVKSAIARQGGLVDLLWDGGLKREKVKDTFKEEQQKLYSKMIVGNHKDRSRS
# B3: PPP6R3 (protein)
# chain: MFWKFDLHSSSHIDTLLEREDVTLKELMDEEDVLQECKAQNRKLIEFLLKAECLEDLVSFIIEEPPQDMDEKIRYKYPNISCELLTSDVSQMNDRLGEDESLLMKLYSFLLNDSPLNPLLASFFSKVLSILISRKPEQIVDFLKKKHDFVDLIIKHIGTSAIMDLLLRLLTCIEPPQPRQDVLNWLNEEKIIQRLVEIVHPSQEEDRHSNASQSLCEIVRLSRDQMLQIQNSTEPDPLLATLEKQEIIEQLLSNIFHKEKNESAIVSAIQILLTLLETRRPTFEGHIEICPPGMSHSACSVNKSVLEAIRGRLGSFHELLLEPPKKSVMKTTWGVLDPPVGNTRLNVIRLISSLLQTNTSSINGDLMELNSIGVILNMFFKYTWNNFLHTQVEICIALILASPFENTENATITDQDSTGDNLLLKHLFQKCQLIERILEAWEMNEKKQAEGGRRHGYMGHLTRIANCIVHSTDKGPNSALVQQLIKDLPDEVRERWETFCTSSLGETNKRNTVDLVTTCHIHSSSDDEIDFKETGFSQDSSLQQAFSDYQMQQMTSNFIDQFGFNDEKFADQDDIGNVSFDRVSDINFTLNTNESGNIALFEACCKERIQQFDDGGSDEEDIWEEKHIAFTPESQRRSSSGSTDSEESTDSEEEDGAKQDLFEPSSANTEDKMEVDLSEPPNWSANFDVPMETTHGAPLDSVGSDVWSTEEPMPTKETGWASFSEFTSSLSTKDSLRSNSPVEMETSTEPMDPLTPSAAALAVQPEAAGSVAMEASSDGEEDAESTDKVTETVMNGGMKETLSLTVDAKTETAVFKRVLKSYREEGKLSTSQDAACKDAEECPETAEAKCAAPRPPSSSPEQRTGQPSAPGDTSVNGPV
# B4: UBAC2 (protein)
# chain: HCQKLFVYDLHAVKNDFQIWRLICGRIICLDLKDTFCSSLLIYNFRIFERRYGSRKFASFLLGSWVLSALFDFLLIEAMQYFFGITAASNLPSGFLAPVFALFVPFYCSIPRVQVAQILGPLSITNKTLIYILGLQLFTSGSYIWIVAISGLMSGLCYDSKMFQVHQVLCIPSWMAKFFSWTLEPIFSSSEPTSEARIGMGATLDIQRQQRMELLDRQLMFSQFAQGRRQRQQQGGMINWNRLFPPLRQRQNVNYQGGRQSEPAAPPLEVSEEQVARLMEMGFSRGDALEALRASNNDLNVATNFLLQH
# B5: SLC25A22 (protein)
# chain: MADKQISLPAKLINGGIAGLIGVTCVFPIDLAKTRLQNQQNGQRVYTSMSDCLIKTVRSEGYFGMYRGAAVNLTLVTPEKAIKLAANDFFRHQLSKDGQKLTLLKEMLAGCGAGTCQVIVTTPMEMLKIQLQDAGRIAAQRKILAAQGQLSAQGGAQPSVEAPAAPRPTATQLTRDLLRSRGIAGLYKGLGATLLRDVPFSVVYFPLFANLNQLGRPASEEKSPFYVSFLAGCVAGSAAAVAVNPCDVVKTRLQSLQRGVNEDTYSGILDCARKILRHEGPSAFLKGAYCRALVIAPLFGIAQVVYFLGIAESLLGLLQDPQA
# B6: FAF2 (protein)
# chain: AAPEERDLTQEQTEKLLQFQDLTGIESMDQCRHTLEQHNWNIEAAVQDRLNEQEGVPSVFNPPPSRPLQVNTADHRIYSYVVSRPQPRGLLGWGYYLIMLPFRFTYYTILDIFRFALRFIRPDPRSRVTDPVGDIVSFMHSFEEKYGRAHPVFYQGTYSQALNDAKRELRFLLVYLHGDDHQDSDEFCRNTLCAPEVISLINTRMLFWACSTNKPEGYRVSQALRENTYPFLAMIMLKDRRMTVVGRLEGLIQPDDLINQLTFIMDANQTYLVSERLEREERNQTQVLRQQQDEAYLASLRADQEKERKKREERERKRRKEEEVQQQKLAEERRRQNLQEEKERKLECLPPEPSPDDPESVKIIFKLPNDSRVERRFHFSQSLTVIHDFLFSLKESPEKFQIEANFPRRVLPCIPSEEWPNPPTLQEAGLSHTEVLFVQDLTDE
# B7: TIMM23B (protein)
# chain: MEGGGGSGDKTTGVLAGFFGAGEAGYSHADLAGVPLTGMNPLCPYLNVDPRYLVQDTDEFILPTGANKTWGRFELAFFTIGGCCMTGAAFGAMNGLRLGLKETQNMAWSKPGNVQILNMVTRQGALWANTLGSLALLYSAFGVIIEKTRGAEDDLNTVAAGTMTGMLYKCTVSEMALDSPFCVLLSGS
# B8: LPCAT1 (protein)
# chain: MRLRGCGPRAAPASSAGASDARLLAPPGRNPFVHELRLSALQKAQVALMTLTLFPVRLLVAAAMMLLAWPLALVASLGSAEKEPEQPPALWRKVVDFLLKAIMRTMWFAGGFHRVAVKGRQALPTEAAILTLAPHSSYFDAIPVTMTMSSIVMKAESRDIPIWGTLIQYIRPVFVSRSDQDSRRKTVEEIKRRAQSNGKWPQIMIFPEGTCTNRTCLITFKPGAFIPGAPVQPVVLRYPNKLDTITWTWQGPGALEILWLTLCQFHNQVEIEFLPVYSPSEEEKRNPALYASNVRRVMAEALGVSVTDYTFEDCQLALAEGQLRLPADTCLLEFARLVRGLGLKPEKLEKDLDRYSERARMKGGEKIGIAEFAASLEVPVSDLLEDMFSLFDESGSGEVDLRECVVALSVVCRPARTLDTIQLAFKMYGAQEDGSVGEGDLSCILKTALGVAELTVTDLFRAIDQEEKGKITFADFHRFAEMYPAFAEEYLYPDQTHFESCAETSPAPIPNGFCADFSPENSDAGRKPVRKKLD
# System: SLC16A11
# Assay: SLC16A11 protein-protein interaction study (immunoprecipitation, quantitative mass spectrometry)
# Parameters: species or system human
# Details: putative SLC16A11^REF interaction partners; immunoprecipitation from HEK293T cells vs empty vector control; Blandt-Altman
# Description: Alternatively, these variants may result in reduced transport because they disrupt protein-protein interactions responsible for correct SLC16A11 function. To explore this possibility, SLC16A11 was immunoprecipitated from HEK293T cells expressing either REF or T2D risk SLC16A11-V5 or empty vector control and quantitative mass spectrometry was used to define the SLC16A11 interactome.
# Another mechanism through which the variants could affect activity is through disruption of protein-protein interactions. To explore this possibility, quantitative mass spectrometry-based protein-protein interaction studies were performed to define the SLC16A11 interactome and evaluate if the T2D risk coding variants alter any interactions.
# Beads were then washed once with lysis buffer and three times with wash buffer. After the last wash, residual wash buffer was removed, 10 μL fresh wash buffer was added, and beads were stored at −80° C. until analysis by the Proteomics Platform at the Broad Institute, as detailed in the “Proteomics Methods for SLC16A11 Protein Interaction Studies” below.
# The beads from immunopurification were washed once with IP lysis buffer, then three times with PBS, the three different lysates of each replicate were resuspended in 90 uL digestion buffer (2M Urea, 50 mM Tris HCl), 2 ug of sequencing grade trypsin added, 1 hour shaking at 700 rpm. The supernatant was removed and placed in a fresh tube. The beads were then washed twice with 50 uL digestion buffer and combined with the supernatant. The combined supernatants were reduced (2 uL 500 mM DTT, 30 minutes, RT), alkylated (4 uL 500 mM IAA, 45 minutes, dark) and a longer overnight digestion performed: 2 ug (4 uL) trypsin, shake o/n, The samples were then quenched with 20 uL 10% FA and desalted on 10 mg SepPak columns.
# Desalted peptides were labelled with iTRAQ reagents according to the manufacturer's instructions (AB Sciex, Foster City, Calif.). Peptides were dissolved in 30 μl of 0.5 M TEAB pH 8.5 solution and labeling reagent was added in 70 ul of ethanol. After 1 h incubation the reaction was stopped with 50 mM Tris/HCl pH 7.5. Differentially labelled peptides were mixed and subsequently desalted on 10 mg SepPak columns.
# Reconstituted peptides were separated on an online nanoflow EASY-nLC 1000 UHPLC system (Thermo Fisher Scientific) and analyzed on a benchtop Orbitrap Q Exactive Plus mass spectrometer (Thermo Fisher Scientific). The peptide samples were injected onto a capillary column (Picofrit with 10 μm tip opening/75 μm diameter, New Objective, PF360-75-10-N-5) packed in-house with 20 cm C18 silica material (1.9 μm ReproSil-Pur C18-AQ medium, Dr. Maisch GmbH, r119.aq). The UHPLC setup was connected with a custom-fit microadapting tee (360 μm, IDEX Health & Science, UH-753), and capillary columns were heated to 50° C. in column heater sleeves (Phoenix-ST) to reduce backpressure during UHPLC separation. Injected peptides were separated at a flow rate of 200 nL/min with a linear 80 min gradient from 100% solvent A (3% acetonitrile, 0.1% formic acid) to 30% solvent B (90% acetonitrile, 0.1% formic acid), followed by a linear 6 min gradient from 30% solvent B to 90% solvent B. Each sample was run for 120 min, including sample loading and column equilibration times. The Q Exactive instrument was operated in the data-dependent mode acquiring HCD MS/MS scans (R=17,500) after each MS1 scan (R=70,000) on the 12 top most abundant ions using an MS1 ion target of 3×10^6 ions and an MS2 target of 5×10^4 ions. The maximum ion time utilized for the MS/MS scans was 120 ms; the HCD-normalized collision energy was set to 27; the dynamic exclusion time was set to 20 s, and the peptide match and isotope exclusion functions were enabled.
# All mass spectra were processed using the Spectrum Mill software package v6.0 pre-release (Agilent Technologies) which includes modules developed by us for iTRAQ-based quantification. […]
row,Molecule,BA log fold change
1,B1,1.18
2,B2,1.16
3,B3,1.18
4,B4,1.21
5,B5,1.20
6,B6,1.23
7,B7,1.22
8,B8,1.16
